Molecular target: human NK1 receptor (transiently expressed in HEK293 cells) (human) (UniProt P25103)
Test: cell-based or functional assay

Chain of UniProt P25103 (P25103 whole entry): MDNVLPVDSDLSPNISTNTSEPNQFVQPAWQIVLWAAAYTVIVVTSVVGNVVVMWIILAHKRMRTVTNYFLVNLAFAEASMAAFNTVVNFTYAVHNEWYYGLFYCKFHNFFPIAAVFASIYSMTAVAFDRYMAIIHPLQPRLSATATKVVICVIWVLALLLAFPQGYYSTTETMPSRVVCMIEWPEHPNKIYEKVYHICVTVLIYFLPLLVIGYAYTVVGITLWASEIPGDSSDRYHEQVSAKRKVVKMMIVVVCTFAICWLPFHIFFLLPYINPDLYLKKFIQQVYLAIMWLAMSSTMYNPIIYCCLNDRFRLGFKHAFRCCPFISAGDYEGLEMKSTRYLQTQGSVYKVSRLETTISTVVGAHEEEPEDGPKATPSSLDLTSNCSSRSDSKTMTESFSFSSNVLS

SPANTIDE II (peptidic analog of substance P) (peptide)
NK1 receptor antagonistic activity (calcium imaging, inhibition of the substance P (100 µM) induced rise in fluorescence): 65%

Reference: patent US20110039801A1
